According to patent US20240350653A1 (JOINT STOCK COMPANY GENERIUM, published 2024):
Values belong to the molecule of their own block, whether it stands above or below them.

How the values were obtained:
[1] = target: mouse insulin receptor (mInsR, R&D Systems, Inc., Cat. No. 7544-MR) (mouse) (UniProt P15208); test: ELISA on mouse insulin receptor
[2] = target: Human Insulin Receptor protein fragment (Abcam cat #ab200510) (human) (UniProt P06213); test: ELISA on human insulin receptor fragment
[3] = target: Human Insulin Receptor protein fragment (Abcam cat #ab200510) (human) (UniProt P06213); test: ELISA on human insulin receptor fragment, relative to 83-14 mAb
[4] = target: T1, mouse insulin receptor (mInsR, R&D Systems, Inc., Cat. No. 7544-MR) (mouse, UniProt P15208 28-946, limits assumed); test: ELISA on mouse insulin receptor
T1 construct: extracellular domain; Bought protein; also called extracellular domain of the mouse insulin receptor

[5] = target: T2, Human Insulin Receptor protein fragment (Abcam cat #ab200510) (human, UniProt P06213-2 28-944, limits assumed); test: ELISA on human insulin receptor fragment
T2 construct: domain: extracellular domain of the alpha subunit; Bought fragment; also called HIR; extracellular domain of the alpha subunit of the human insulin receptor

[6] = target: T2, Human Insulin Receptor protein fragment …; test: ELISA on human insulin receptor fragment, relative to 83-14 mAb

- EC50 [1]: > 0.8 µg/mL
- EC50 [2]: 0.0262 µg/mL
- Receptor binding from antibody 83-14 mAb, % [3]: 126%
Molecule: HIR-MAB-IDS (antibody)

- EC50 [1]: > 0.8 µg/mL
- EC50 [2]: 0.0321 µg/mL
- Receptor binding from antibody 83-14 mAb, % [3]: 102%
Molecule: INSR/Insulin Receptor alpha Antibody 83-14 (Life technologies, cat#AHR0221)

- EC50 [1]: > 0.8 µg/mL
- EC50 [2]: 0.0331 µg/mL
- Receptor binding from antibody 83-14 mAb, % [3]: 100%
Molecule: Mouse Anti-Human Insulin Receptor Clone 83-14 mAb (Cell sciences, cat# MAI1) (antibody)

- EC50 [4]: > 0.8 µg/mL
- Receptor binding, % [4]: 0%
- EC50 [5]: 0.0503 µg/mL
- Receptor binding from antibody 83-14 mAb, % [6]: 66%
B1: HIR-FAB-IDS (SEQ ID NO: 2 and SEQ ID NO: 5) (Fab)
light: DIQMTQSPSSLSASLGERVSLTCRASQDIGGNLYWLQQGPDGTIKRLIYATSSLDSGVPKRFSGSRSGSDYSLTISSLESEDFVDYYCLQYSSSPWTFGGGTKMEIKRTVAAPSVFIFPPSDEQLKSGTASVVCLLNNFYPREAKVQWKVDNALQSGNSQESVTEQDSKDSTYSLSSTLTLSKADYEKHKVYACEVTHQGLSSPVTKSFNRGEC
heavy: QVQLQQSGPELVKPGALVKISCKASGYTFTNYDIHWVKQRPGQGLEWIGWIYPGDGSTKYNEKFKGKATLTADKSSSTAYMHLSSLTSEKSAVYFCAREWAYWGQGTLVTVSAASTKGPSVFPLAPSSKSTSGGTAALGCLVKDYFPEPVTVSWNSGALTSGVHTFPAVLQSSGLYSLSSVVTVPSSSLGTQTYICNVNHKPSNTKVDKKVEPKSCDKTHGGGGSGGGGSGGGGSSETQANSTTDALNVLLIIVDDLRPSLGCYGDKLVRSPNIDQLASHSLLFQNAFAQQAVCAPSRVSFLTGRRPDTTRLYDFNSYWRVHAGNFSTIPQYFKENGYVTMSVGKVFHPGISSNHTDDSPYSWSFPPYHPSSEKYENTKTCRGPDGELHANLLCPVDVLDVPEGTLPDKQSTEQAIQLLEKMKTSASPFFLAVGYHKPHIPFRYPKEFQKLYPLENITLAPDPEVPDGLPPVAYNPWMDIRQREDVQALNISVPYGPIPVDFQRKIRQSYFASVSYLDTQVGRLLSALDDLQLANSTIIAFTSDHGWALGEHGEWAKYSNFDVATHVPLIFYVPGRTASLPEAGEKLFPYLDPFDSASQLMEPGRQSMDLVELVSLFPTLAGLAGLQVPPRCPVPSFHVELCREGKNLLKHFRFRDLEEDPYLPGNPRELIAYSQYPRPSDIPQWNSDKPSLKDIKIMGYSIRTIDYRYTVWVGFNPDEFLANFSDIHAGELYFVDSDPLQDHNMYNDSQGGDLFQLLMP
notes: Variant of the Fab-iduronate-2-sulfatase fusion
